Measured values reported in patent US20160222109A1 (DYAX, published 2016).
Positions count from the first letter of the chain named.

How the values were obtained:
[1] = biological target: T1, soluble human FcRn (extra-cellular domain of heavy chain and β2M) (human, UniProt P55899 24-297; P61769 21-119); assay: SPR, sol Fab, pH 7.4
T1 construct: also called shFcRn; soluble hFcRn

[2] = biological target: T1, soluble human FcRn (extra-cellular …); assay: SPR 8500, hFcRn pH 6
[3] = biological target: T2, soluble rat FcRn (rat, UniProt P13599 23-298; P07151 21-119); assay: SPR 8500, rat FcRn pH 7.4
T2 construct: Soluble protein; whole entries named; also called sol rat FcRn
T2 sequence: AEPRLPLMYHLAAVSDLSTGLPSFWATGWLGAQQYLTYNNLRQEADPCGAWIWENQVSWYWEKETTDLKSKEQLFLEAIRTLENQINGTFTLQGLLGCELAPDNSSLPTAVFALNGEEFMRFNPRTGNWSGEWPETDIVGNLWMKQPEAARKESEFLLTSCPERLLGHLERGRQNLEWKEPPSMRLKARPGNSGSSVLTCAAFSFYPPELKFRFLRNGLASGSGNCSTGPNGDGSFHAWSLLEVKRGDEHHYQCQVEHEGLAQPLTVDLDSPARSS
T2 sequence (b2m): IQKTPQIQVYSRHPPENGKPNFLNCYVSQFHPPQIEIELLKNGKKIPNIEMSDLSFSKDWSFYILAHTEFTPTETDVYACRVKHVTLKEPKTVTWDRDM

[4] = biological target: T2, soluble rat FcRn; assay: SPR 8500, sol Fab, pH 7.5
[5] = biological target: T1, soluble human FcRn (extra-cellular …); assay: SPR 8500, sol Fab, pH 7.5
[6] = biological target: T1, soluble human FcRn (extra-cellular …); assay: SPR 8500, hFcRn pH 6; remark: listed apart in the source
[7] = biological target: T2, soluble rat FcRn; assay: SPR 8500, sol Fab, pH 6
[8] = biological target: T1, soluble human FcRn (extra-cellular …); assay: SPR 8500, sol Fab, pH 6
[9] = biological target: T1, soluble human FcRn (extra-cellular …); assay: SPR 8500, hFcRn pH 7.4
[10] = biological target: T2, soluble rat FcRn; assay: SPR 8500, rat FcRn pH 6
[11] = biological target: T2, soluble rat FcRn; assay: SPR 8500, rat FcRn pH 6; remark: listed apart in the source
[12] = biological target: T2, soluble rat FcRn; assay: SPR 8500, rat FcRn pH 7.4; rat FcRn pH 7.4
[13] = biological target: T3, rat FcRn / rat β2M expressed on cells (rat, UniProt P13599 23-366; P07151 21-119); assay: FACS blocking of IgG-Fc, sol Fab, pH 6
T3 construct: also called rat FcRn (cells); rat fibroblasts expressing rat FcRn
T3 sequence: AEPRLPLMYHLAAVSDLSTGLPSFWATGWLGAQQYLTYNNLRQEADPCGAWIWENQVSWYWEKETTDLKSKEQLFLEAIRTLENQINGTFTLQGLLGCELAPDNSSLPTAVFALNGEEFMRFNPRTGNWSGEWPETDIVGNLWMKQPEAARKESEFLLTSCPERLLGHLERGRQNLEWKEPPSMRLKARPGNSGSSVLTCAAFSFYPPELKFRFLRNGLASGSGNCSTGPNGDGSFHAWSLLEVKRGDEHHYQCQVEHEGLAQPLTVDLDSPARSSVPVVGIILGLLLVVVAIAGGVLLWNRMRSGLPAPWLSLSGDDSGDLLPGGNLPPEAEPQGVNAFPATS
T3 sequence (b2m): T2 sequence (b2m)

[14] = biological target: T4, human FcRn / human β2M expressed in 293 C11 cells (human, UniProt P55899 24-365; P61769 21-119); assay: FACS blocking of IgG-Fc, sol Fab, pH 6
T4 construct: HEK 293 cells engineered to overexpress FcRn; also called hFcRn (cells); hFcRn in THP-1 and Caco-2 cells
T4 sequence (P55899 24-365 limits assumed, chain 1 of 2): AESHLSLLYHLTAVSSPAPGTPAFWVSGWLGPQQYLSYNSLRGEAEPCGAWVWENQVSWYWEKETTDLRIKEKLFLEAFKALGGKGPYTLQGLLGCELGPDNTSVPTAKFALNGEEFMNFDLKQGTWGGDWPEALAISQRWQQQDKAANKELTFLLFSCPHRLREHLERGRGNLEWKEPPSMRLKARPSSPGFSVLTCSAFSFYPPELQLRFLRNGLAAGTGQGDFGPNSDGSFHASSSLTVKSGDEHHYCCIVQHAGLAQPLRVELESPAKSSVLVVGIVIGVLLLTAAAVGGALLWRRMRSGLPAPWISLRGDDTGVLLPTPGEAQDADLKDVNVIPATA
T4 sequence (P61769 21-119 limits assumed, chain 2 of 2): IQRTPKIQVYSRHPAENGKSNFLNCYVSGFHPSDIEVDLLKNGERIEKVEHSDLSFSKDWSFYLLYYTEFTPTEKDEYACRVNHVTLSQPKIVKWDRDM

[15] = biological target: T1, soluble human FcRn (extra-cellular …); assay: SPR, sol Fab, pH 6.0
[16] = biological target: T1, soluble human FcRn (extra-cellular …); assay: SPR 8500, hFcRn pH 7.4; remark: listed apart in the source
[17] = biological target: T1, soluble human FcRn (extra-cellular …); assay: Biacore, hFcRn on chip, IgG flowed, pH 6
[18] = biological target: T1, soluble human FcRn (extra-cellular …); assay: Biacore, hFcRn on chip, IgG flowed, pH 7.4
[19] = biological target: T1, soluble human FcRn (extra-cellular …); assay: Biacore, IgG on chip, hFcRn flowed, pH 7.4
[20] = biological target: T4, human FcRn / human β2M expressed in 293 …; assay: FACS blocking, hFcRn cells, pH 6
[21] = biological target: T1, soluble human FcRn (extra-cellular …); assay: Biacore, IgG on chip, hFcRn flowed, pH 6
[22] = biological target: T1, soluble human FcRn (extra-cellular …); assay: Biacore, IgG on chip, hFcRn flowed, pH 7.4; remark: listed apart in the source
[23] = biological target: T1, soluble human FcRn (extra-cellular …); assay: Biacore, FcRn on chip, pH 7.4; pH 7.4; n = 2
[24] = biological target: T1, soluble human FcRn (extra-cellular …); assay: Biacore, FcRn on chip, pH 7.4
[25] = biological target: T5, soluble monkey FcRn (monkey (cyno), UniProt Q8SPV9 24-297; Q8SPW0 21-119); assay: Biacore, FcRn on chip, pH 7.4
T5 construct: also called cyno
T5 sequence (Q8SPV9 24-297, chain 1 of 2): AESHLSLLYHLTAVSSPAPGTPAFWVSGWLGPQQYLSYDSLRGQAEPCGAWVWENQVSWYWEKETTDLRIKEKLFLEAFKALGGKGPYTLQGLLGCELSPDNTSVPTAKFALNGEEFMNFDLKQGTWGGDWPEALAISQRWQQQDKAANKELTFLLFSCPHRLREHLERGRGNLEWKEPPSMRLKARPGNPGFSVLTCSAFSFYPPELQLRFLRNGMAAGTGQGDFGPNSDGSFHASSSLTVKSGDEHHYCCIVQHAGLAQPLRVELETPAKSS
T5 sequence (Q8SPW0 21-119, chain 2 of 2): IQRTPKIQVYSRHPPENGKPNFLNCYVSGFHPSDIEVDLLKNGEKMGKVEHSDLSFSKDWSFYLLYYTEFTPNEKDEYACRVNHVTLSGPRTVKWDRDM

[26] = biological target: T1, soluble human FcRn (extra-cellular …); assay: Biacore, FcRn on chip, pH 6.0
[27] = biological target: T5, soluble monkey FcRn; assay: Biacore, FcRn on chip, pH 6.0
[28] = biological target: T3, rat FcRn / rat β2M expressed on cells; assay: FACS binding, Alexa488-mAb, pH 7.4
[29] = biological target: T6, murine FcRn / murine β2M expressed on 3T3 cells (mouse, UniProt Q61559 22-365; P01887 21-119); assay: FACS binding, Alexa488-mAb, pH 7.4
T6 construct: whole, on cells; also called mouse FcRn; 3T3 FcRn cells
T6 sequence (looked up): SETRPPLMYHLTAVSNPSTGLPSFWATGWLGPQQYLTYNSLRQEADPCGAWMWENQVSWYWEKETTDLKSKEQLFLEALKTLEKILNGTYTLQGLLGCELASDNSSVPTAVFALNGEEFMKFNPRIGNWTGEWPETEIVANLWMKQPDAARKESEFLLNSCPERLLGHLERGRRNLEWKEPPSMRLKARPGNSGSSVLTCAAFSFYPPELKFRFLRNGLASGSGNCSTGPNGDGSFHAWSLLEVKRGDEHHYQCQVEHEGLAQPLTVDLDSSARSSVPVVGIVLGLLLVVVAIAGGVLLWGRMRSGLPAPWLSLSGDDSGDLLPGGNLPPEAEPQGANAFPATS
T6 sequence (b2m, looked up): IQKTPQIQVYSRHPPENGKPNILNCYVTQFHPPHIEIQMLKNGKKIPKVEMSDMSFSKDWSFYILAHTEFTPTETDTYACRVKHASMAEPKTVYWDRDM

T1 sequence (P55899 24-297 limits assumed, chain 1 of 2): as the sequence (Q8SPV9 24-297, chain 1 of 2) above, with D39N, Q44E, S99G, G189S, N190S, M217L, T269S counted along it
T1 sequence (P61769 21-119 limits assumed, chain 2 of 2): as the sequence (P61769 21-119 limits assumed, chain 2 of 2) above

B1: 532A-M0090-F11 soluble Fab (Fab)
VH: EVQLLESGGGLVQPGGSLRLSCAASGFTFSEYAMGWVRQAPGKGLEWVSSIGSSGGQTKYADSVKGRFTISRDNSKNTLYLQMNSLRAEDTAVYYCARLSTGELYWGQGTLVTVSS
light: QSVLTQPASVSGSPGQSITISCTGTGSDVGSYNLVSWYQKYPGKAPKLIIYGDSQRPSGLSSRFSGSKSGNSASLTISGLQAEDEADYYCCSYAGSGIYVFGSGTKVTVLSQPKANPTVTLFPPSSEELQANKATLVCLISDFYPGAVTVAWKADGSPVKAGVETTKPSKQSNNKYAASSYLSLTPEQWKSHRSYSCQVTHEGSTVEKTVAPAECS
notes: sFab from phage display; CH1 not set out for the Fab; also called M90-F11 (Fab); M090-F11
With B1 the “Fold Kd Improvement Over Germlined M90-F11” value [1] was 2.3 fold, the Kd [1] was 13 nM and the Kd [2] was 6.11 nM. The Kd [3] was 3.29 nM, the Kd [4] was 9.9 nM and the Kd [5] was 19.1 nM. It also gave a Kd [6] of 9.2 nM, a Kd [7] of 31.2 nM and a Kd [8] of 9.2 nM. It also gave a Kd [9] of 19.1 nM, a Kd [10] of 20.3 nM and a Kd [11] of 31.2 nM. The Kd [12] was 9.96 nM, the IC50 [13] was 6480 nM and the IC50 [14] was 13 nM. It also gave a Kd [15] of 12 nM and a Kd [16] of 7.08 nM.

B2: 532A-M0090-F11 (germlined LC changes) IgG (antibody)
heavy: EVQLLESGGGLVQPGGSLRLSCAASGFTFSEYAMGWVRQAPGKGLEWVSSIGSSGGQTKYADSVKGRFTISRDNSKNTLYLQMNSLRAEDTAVYYCARLSTGELYWGQGTLVTVSSASTKGPSVFPLAPSSKSTSGGTAALGCLVKDYFPEPVTVSWNSGALTSGVHTFPAVLQSSGLYSLSSVVTVPSSSLGTQTYICNVNHKPSNTKVDKKVEPKSCDKTHTCPPCAPELLGGPSVFLFPPKPKDTLMISRTPEVTCVVVDVSHEDPEVKFNWYVDGVEVHNAKTKPREEQYNSTYRVVSVLTVLHQDWLNGKEYKCKVSNKALPAPIEKTISKAKGQPREPQVYTLPPSPREPQVYTLPPSRDELTKNQVSLTCLVKGFYPSDIAVEWESNGQPENNYKTTPPVLDSDGSFFLYSKLTVDKSRWQQGNVFSCSVMHEALHNHYTQKSLSLSPGK
light: B1 light with V3A, K40Q, Y41H, I49M, L60V, S62N, S72T, S103T, S111G, A213T
notes: also called Germlined M90-F11 (GL)
B2 showed a Kd [17] of 0.172 nM, a koff [17] of 0.000764 s⁻¹ and a kon [17] of 4.45e+06 M⁻¹ s⁻¹. The Kd [18] was 0.779 nM, the koff [18] was 0.000776 s⁻¹ and the kon [18] was 996000 M⁻¹ s⁻¹. The Kd [19] was 35.2 nM, the koff [19] was 0.0152 s⁻¹ and the kon [19] was 433000 M⁻¹ s⁻¹. For the same binder, the IC50 [20] was 0.38 nM, the Kd [21] was 29.9 nM and the koff [21] was 0.0172 s⁻¹. For the same binder, the kon [21] was 574000 M⁻¹ s⁻¹.

B3: DX-2500 (germlined LC & allotype HC changes) (antibody)
heavy: B2 heavy with K213R, D366E, L368M
light: B1 light with V3A, K40Q, Y41H, I49M, L60V, S62N, S72T, S103T, S111G, A213T
notes: IgG, F allotype; 13 amino acid changes against parent M90-F11
In the case of B3, the Kd [17] is reported as 0.16 nM, the koff [17] is reported as 0.000336 s⁻¹ and the kon [17] is reported as 2.11e+06 M⁻¹ s⁻¹. For the same binder, the Kd [18] was 0.268 nM, the koff [18] was 0.000338 s⁻¹ and the kon [18] was 1.26e+06 M⁻¹ s⁻¹. The “K off Fold improvement over DX2500” value [22] was 1 fold, the “K off Fold improvement over M90-F11” value [22] was 0.15 fold and the “KD Fold improvement over DX2500” value [22] was 1 fold. For the same binder, the “KD Fold improvement over M90-F11” value [22] was 0.21 fold, the Kd [22] was 87.9 nM and the koff [22] was 0.0197 s⁻¹. The kon [22] was 224000 M⁻¹ s⁻¹, the IC50 [20] was 0.65 nM and the Kd [21] was 27.6 nM. For the same binder, the koff [21] was 0.0177 s⁻¹ and the kon [21] was 642000 M⁻¹ s⁻¹.

B4: 3B3.11 (antibody)
heavy: VKLQESGPELVKPGASVKISCKASGYAFSRSWMNWVKQRPGQGLEWIGRIHPGDGDTNYNGKFKGKATLTVAKSSSTAYMQLSSLTSVDSAVYFCANEGSPYFDYWGQGTTLTVSSAKTTPPSVYPLAPGSAAQTNSMVTLGCLVKGYFPEPVTVTWNSGSLSSGVHTFPAVLQSDLYTLSSSVTVPSSTWPSETVTCNVAHPASSTKVDKKLE
light: DIQLTQSPTTVAASPGEKITITCSASSSISSNYLHWYQQKPGFSPKLLIYRTSNLASGVPARFSGSGSGTSYSLTIGTMEAEDVATYYCQQGSNIPLTFGAGTKLELKRADAAPTVSIFPPSSEQLTSGGASVVCFLNNFYPKDINVKWKIDGSERQNGVLNSWTDQDSKDSTYSMSSTLTLTKDEYERHNSYTCEATHKTSTSPIVKSFNKNE
notes: also called mAb 3B3.11
Work on B4 yielded a koff [23] of 1.45e-06 s⁻¹, a Kd [24] of 0.16 nM and a Kd [25] of 3.24 nM. The koff [25] was 0.000247 s⁻¹, the Kd [26] was 1.17 nM and the koff [26] was 0.000176 s⁻¹. For the same binder, the Kd [27] was 3.23 nM, the koff [27] was 0.000552 s⁻¹ and the binding result [28] was “no binding”. B4: binds [29].
